The target in the test is HPV 16 E786-93 epitope […] (X aminobutyric acid) presented by HLA-A2.1 (human papilloma virus (HPV) 16; human).

The substance “freshly isolated HLA-A2 positive CD8+ (CTLs) and CD4+ (HTLs) T cells (cells without a defined receptor)” yielded an IFN γ Elispot, frequency of spots (250,000 cells per well) of 0.02%.

The record behind these values is US20080044407A1.
